By stoichiometry N is commonly meant the number of molecules, sites or subunits per partner or assembly.

In this assay the target is T1, mouse MILL2 extracellular domain (heavy chain) (mouse).
T1 sequence (Q8HWE5 whole entry, looked up): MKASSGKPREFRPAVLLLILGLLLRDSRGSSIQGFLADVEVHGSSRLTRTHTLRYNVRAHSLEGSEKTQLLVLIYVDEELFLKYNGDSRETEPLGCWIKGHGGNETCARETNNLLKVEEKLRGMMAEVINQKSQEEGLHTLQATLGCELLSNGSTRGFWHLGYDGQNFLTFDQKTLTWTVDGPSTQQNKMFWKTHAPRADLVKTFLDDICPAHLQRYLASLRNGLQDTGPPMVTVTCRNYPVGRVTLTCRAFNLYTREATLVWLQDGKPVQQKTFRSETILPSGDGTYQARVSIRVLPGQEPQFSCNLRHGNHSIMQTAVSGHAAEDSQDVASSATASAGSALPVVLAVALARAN
Nature of the assay: SEC; MILL2 refolded by rapid dilution with 10 μM refolded β2m; complex purified on Superdex 75 and then by cation exchange (RESOURCE S); stoichiometry of the purified complex (Supplementary Fig. 1c). Background: Size exclusion chromatography separates by hydrodynamic size, large species first.

“mouse β2-microglobulin (from UniProt P01887 21-119) (natural protein)” gave a stoichiometry N of 1.
